This note sets out measurements from PMC2670979 (2009).

The chains are these.
B1: GST-Miro1 WT [not stated] / TRAK2 (amino acids 476–700) [modified: 35S-methionine label; 35S-methionine label] [not stated] (parent complex)
chain 1: MKKDVRILLVGEPRVGKTSLIMSLVSEEFPEEVPPRAEEITIPADVTPERVPTHIVDYSEAEQSDEQLHQEISQANVICIVYAVNNKHSIDKVTSRWIPLINERTDKDSRLPLILVGNKSDLVEYSSMETILPIMNQYTEIETCVECSAKNLKNISELFYYAQKAVLHPTGPLYCPEEKEMKPACIKALTRIFKISDQDNDGTLNDAELNFFQRICFNTPLAPQALEDVKNVVRKHISDGVADSGLTLKGFLFLHTLFIQRGRHETTWTVLRRFGYDDDLDLTPEYLFPLLKIPPDCTTELNHHAYLFLQSTFDKHDLDRDCALSPDELKDLFKVFPYIPWGPDVNNTVCTNERGWITYQGFLSQWTLTTYLDVQRCLEYLGYLGYSILTEQESQASAVTVTRDKKIDLQKKQTQRNVFRCNVIGVKNCGKSGVLQALLGRNLMRQKKIREDHKSYYAINTVYVYGQEKYLLLHDISESEFLTEAEIICDVVCLVYDVSNPKSFEYCARIFKQHFMDSRIPCLIVAAKSDLHEVKQEYSISPTDFCRKHKMPPPQAFTCNTADAPSKDIFVKLTTMAMYPHVTQADLKSSTFWLRASFGATVFAVLGFAMYKALLKQR
chain 2: EDSDLATALHRLSLRRQNYLSEKQFFAEEWERKLQILAEQEEEVSSCEALTENLASFCTDQSETTELGSAGCLRGFMPEKLQIVKPLEGSQTLHHWQQLAQPNLGTILDPRPGVITKGFTQMPKDAVYHISDLEEDEEVGITFQVQQPLQLEQKPAPPPPVTGIFLPPMTSAGGPVSVATSNPGKCLSFTNSTFTFTTCRILHPSDITQVTPSSGFPSLSCGSSA

The variants in the test derive from B1. Put plainly: GST pull-down of in vitro translated 35S-labeled protein; 2 mM Ca2+; normalized to 100 at 0 mM Ca2+; parent: 110; read off a plot.
Turning to chain 1 E208K, chain 1 E328K, the screen value is around 120.
